# T1: AfAgo (Archaeoglobus fulgidus DSM4304, UniProt O28951 1-427)
# T1 sequence: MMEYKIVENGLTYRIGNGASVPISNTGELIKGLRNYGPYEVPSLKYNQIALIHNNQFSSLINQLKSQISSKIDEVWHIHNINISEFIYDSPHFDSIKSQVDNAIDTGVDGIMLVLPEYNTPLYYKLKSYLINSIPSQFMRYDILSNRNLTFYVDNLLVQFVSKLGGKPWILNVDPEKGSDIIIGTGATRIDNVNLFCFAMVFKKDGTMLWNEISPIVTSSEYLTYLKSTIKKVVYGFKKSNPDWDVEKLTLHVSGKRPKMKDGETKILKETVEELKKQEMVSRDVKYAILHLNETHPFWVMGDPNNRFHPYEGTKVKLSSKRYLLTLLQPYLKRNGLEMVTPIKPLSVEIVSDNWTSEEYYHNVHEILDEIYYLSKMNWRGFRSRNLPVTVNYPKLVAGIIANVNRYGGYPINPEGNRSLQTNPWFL
# B1: RNA/DNA MZ-1480/1455 (DNA:RNA)
# RNA: AUUGUACACGGCCGAAU
# DNA: ATTCGGCCGTGTACAAT
# modifications: 5'-phosphate
# B2: g17/t17 MZ-1800/MZ-1455 (DNA:RNA)
# RNA: AUUGUACACGGCCGAAU
# DNA: ATTCGGCCGTGTACAAT
# modifications: 5'-phosphate guide
# B3: g30/t51 MZ-1745/MZ-1747 (DNA:RNA)
# RNA: AGGAGGGCGGAGCCUAUGGAAAAACGCCAC
# DNA: GCCGCGCCGGTGGCGTTTTTCCATAGGCTCCGCCCTCCTGCCAGAGTTCGC
# modifications: 5'-phosphate guide
# B4: MZ-1288 14 bp DNA (dsDNA)
# DNA 1: ATTGTGGCCACAAT
# DNA 2: ATTGTGGCCACAAT
# modifications: 5'-phosphate
# B5: gRNA MZ-1480 / tDNA MZ-1560 (DNA:RNA)
# RNA: AUUGUACACGGCCGAAU
# DNA: CGGAATATATGTACAAT
# modifications: 5'-phosphate guide
# B6: dsDNA MZ-1447/1455 (dsDNA)
# DNA 1: ATTGTACACGGCCGAAT
# DNA 2: ATTCGGCCGTGTACAAT
# modifications: 5'-phosphate
# Key:
# AfAgo;AfAgo-N [1] = molecular target: T2, AfAgo;AfAgo-N (Archaeoglobus fulgidus …, UniProt O28951;A0A075WKW4 1-427;1-250, |); test: EMSA; 5 mM Mg2+; EMSA: 40 mM Tris-acetate, 1 mM EDTA, pH 8.4, 5 mM Mg(OAc)2, 0.1 mg/ml BSA, 1 mM DTT, 10% glycerol, room temperature (25 C), 1 h; details: protein: recombinant;recombinant, tags: ;His6-TEV (N-terminal), copies: 1;1, label: 5'-32P
# AfAgo = molecular target: T1, AfAgo; test: as above; details: protein: recombinant; label: 5'-32P; blunt
# AfAgo;AfAgo-N [2] = molecular target: T2, AfAgo;AfAgo-N; test: cryo-EM; 3.56 A; EMSA: 40 mM Tris-acetate, 1 mM EDTA, pH 8.4, 5 mM Mg(OAc)2, 0.1 mg/ml BSA, 1 mM DTT, 10% glycerol, room temperature (25 C), 1 h; details: protein: recombinant;recombinant; tags: ;His6-TEV (N-terminal); copies: 1;1; blunt
# AfAgo;AfAgo-N [3] = molecular target: T2, AfAgo;AfAgo-N; test: cryo-EM; 2.83 A; EMSA: 40 mM Tris-acetate, 1 mM EDTA, pH 8.4, 5 mM Mg(OAc)2, 0.1 mg/ml BSA, 1 mM DTT, 10% glycerol, room temperature (25 C), 1 h; details: protein: recombinant;recombinant; tags: ;His6-TEV (N-terminal); copies: 1;1; 30 nt guide on 51 nt target with target overhangs
# AfAgo;AfAgo-N [4] = molecular target: T2, AfAgo;AfAgo-N; test: X-ray crystallography; 2.5 A; 5 mM Mg2+; EMSA: 40 mM Tris-acetate, 1 mM EDTA, pH 8.4, 5 mM Mg(OAc)2, 0.1 mg/ml BSA, 1 mM DTT, 10% glycerol, room temperature (25 C), 1 h; details: protein: recombinant;recombinant; tags: ;His6-TEV (N-terminal); copies: 1;1; 2 strands partially annealed, 3 bp, in crystal
# AfAgo;AfAgo-N [5] = molecular target: T2, AfAgo;AfAgo-N; test: SEC-SAXS; 5 mM Mg2+; SASDRX8; EMSA: 40 mM Tris-acetate, 1 mM EDTA, pH 8.4, 5 mM Mg(OAc)2, 0.1 mg/ml BSA, 1 mM DTT, 10% glycerol, room temperature (25 C), 1 h; details: protein: recombinant;recombinant; tags: ;His6-TEV (N-terminal); copies: 1;1; blunt, self-complementary
# AfAgo;AfAgo-N [6] = molecular target: T2, AfAgo;AfAgo-N; test: EMSA; preloaded guide, 5 mM Mg2+; EMSA: 40 mM Tris-acetate, 1 mM EDTA, pH 8.4, 5 mM Mg(OAc)2, 0.1 mg/ml BSA, 1 mM DTT, 10% glycerol, room temperature (25 C), 1 h; details: protein: recombinant;recombinant; tags: ;His6-TEV (N-terminal); copies: 1;1; label: 5'-32P target; g1-g8 complementary
binder,measurement,setting,value
B1,binding result,AfAgo;AfAgo-N [1]; blunt,binds
same,binding result,AfAgo,binds
B2,binding result,AfAgo;AfAgo-N [2],binds
B3,binding result,AfAgo;AfAgo-N [3],binds
"ATCGACCAGGCTACG (ssDNA, 5'-phosphate) [GS-851]",binding result,AfAgo;AfAgo-N [4],binds
B4,binding result,AfAgo;AfAgo-N [5],binds
B5,binding result,AfAgo;AfAgo-N [6],binds
AUUGUACACGGCCGAAU (ssRNA) [ssRNA MZ-1480],binding result,AfAgo;AfAgo-N [1]; single-stranded,binds
ATTGTACACGGCCGAAT (ssDNA) [ssDNA MZ-1447],binding result,AfAgo;AfAgo-N [1]; single-stranded,binds
B6,binding result,AfAgo;AfAgo-N [1]; blunt,binds
same,binding result,AfAgo,binds

# Source: paper PMC10954474, “https://orcid.org/0000-0002-6027-2265 Manakova Elena Institute of Biotechnology, Life Sciences Center, Vilnius University, Sauletekio av. 7, LT-10257, Vilnius, Lithuania”
